Test results: paper PMC4066749, “A sequence-based approach for prediction of CsrA/RsmA targets in bacteria with experimental validation in Pseudomonas aeruginosa” (Nucleic Acids Research, 2014)

B1: RsmA-R44A mutant (natural protein)
chain: MLILTRRVGETLMVGDDVTVTVLGVKGNQVRIGVNAPKEVAVHAEEIYQRIQKEKDQEPNH
notes: RsmA of Pseudomonas aeruginosa with R44A; also called the mutant
B2: RsmA (regulator of secondary metabolism), His-tagged (natural protein)
chain: not shown
notes: also called CsrA homolog; wild-type RsmA protein; source: purification from E. coli

Target: the molecule itself
Experiment: SEC; Superdex 75 HR 10/30 analytical column calibrated with a Gel Filtration LMW Calibration Kit; absorbance at 280 nm; apparent molecular weights from elution volumes

Protein	binding result	stoichiometry N
B1	binds	
B2		2
